Reference: article PMC9673926, “Nucleotide binding as an allosteric regulatory mechanism for Akkermansia muciniphila β-N-acetylhexosaminidase Am2136” (Gut Microbes, 2022)
Residue numbers refer to the chain shown, from its start. Names and notes keep the numbering of the source.

Columns and labels:
Am2136 WT [1] = target: T1, Am2136 WT (Akkermansia muciniphila, UniProt B2UPR7); assay: Nucleotide binding affinity by intrinsic fluorescence; details: Am2136 WT; fluorescence ex 286 nm/em 336 nm
T1 construct: The coding region (residue Q20-L756) of Am2136 without signal peptide was based on UniProt; 6XHis (N); made in house; host or cells: E. coli BL21 (DE3)
Method: The nucleotide binding ability was determined on Fluorescence Spectrometer Duetta (HORIBA) by measuring the change of peak intensity. The fluorescence was excited at 286 nm and emitted at 336 nm. And the measurement was processed under 400 V voltage with 2.5 nm excitation slit and 5 nm emission slit. […] The sample was incubated at 4°C for 5 min before testing.

Am2136 WT [2] = target: T1, Am2136 WT; assay: Enzyme activity assay (pNP-β-GlcNAc hydrolysis) regulated by nucleotides; type: biochemical; details: WT; 1 mM nucleotide; substrate pNP-β-GlcNAc; 37°C
Am2136 = target: T2, Am2136 (Akkermansia muciniphila, UniProt B2UPR7); assay: Oligosaccharide hydrolysis, released GlcNAc by HPLC-QqQ-MS; type: biochemical; details: 1.2 mM substrate, 4 μM Am2136, 37°C, 240 min
T2 construct: The coding region (residue Q20-L756) of Am2136 without signal peptide was based on UniProt; 6XHis (N); made in house; host or cells: E. coli BL21 (DE3)
Method: The 30 μL reaction mixture contains 1.2 mM oligosaccharides (Sigma), 4 μM proteins, 150 mM NH4Ac pH 8.0. The qualitative and quantitative analyses were performed by high-performance liquid chromatography-tandem triple quadrupole mass spectrometry (HPLC-QqQ-MS) (Agilent 1260 HPLC system and 6460 QqQ system, Agilent Technologies, USA). The separation was performed on a Chromplus C18 column (4.6 × 250 mm, 5 μm) at 25°C. The samples were isocratic eluted with 0.1% formic acid in water and acetonitrile (80:20, v/v) at a flow rate of 0.5 mL/min with an injection volume of 5 μL. The mass spectrometer was operated in the electron spray ionization mode with drying gas temperature of 300°C, N2 gas flow at 11 L/min, nebulizer pressure of 15 psi, and capillary voltage of 4000 V.
Qualitative analysis was carried out by MS2 full-scan mode, while quantitative analysis was performed by multiple reaction monitoring (MRM) in positive ionization mode. Amygdalin (IS) was used as internal standard, and the sample was prepared by adding 20 μL internal standard (116.96 μM) and 170 μL water to 10 μL reaction mixture. The ion transitions were chosen as m/z 222.0→203.9 for GlcNAc and m/z 458.1→296.0 for IS. The fragmentor voltage values of GlcNAc and IS were set to 70 and 130 V, respectively. The collision energies of GlcNAc and IS were set to 1 and 10 eV, respectively. The signal acquisition and peak integration were performed using the MassHunter Qualitative Analysis Software (Agilent, USA). The concentration of GlcNAc in each sample was determined by using the established calibration curve (y = 0.768x + 2.4873) made from the standard compound.

[3] = substrate: CC(=O)N[C@H]1[C@H](Oc2ccc([N+](=O)[O-])cc2)O[C@H](CO)[C@@H](O)[C@@H]1O; assay: Release of 4-nitrophenolate from pNP-β-GlcNAc (0.125-4 mM) followed at 405 nm for 5 min with 2 μM enzyme in 25 mM Tris pH 8.0, 150 mM NaCl at 37 °C, no nucleotide.; type: biochemical
Description: All experiments were repeated three times.

[4] = substrate: CC(=O)N[C@H]1[C@H](Oc2ccc([N+](=O)[O-])cc2)O[C@H](CO)[C@@H](O)[C@@H]1O; assay: purified protein, by the assay type; details: pH 8.0

`Nc1ncnc2c1ncn2[C@@H]1O[C@H](COP(=O)(O)OP(=O)(O)O)[C@@H](O)[C@H]1O` [ADP] was tested, and the Kd (Am2136 WT [1]) was 255 ± 4.98 µM and the Vmax (Am2136 WT [2]) was 422 ± 6 µmol/min.

`Nc1ncnc2c1ncn2[C@@H]1O[C@H](COP(=O)(O)OP(=O)(O)OP(=O)(O)O)[C@@H](O)[C@H]1O` [ATP] showed a Kd (Am2136 WT [1]) of 245 ± 5.99 µM and a Vmax (Am2136 WT [2]) of 442 ± 9 µmol/min.

`Nc1ccn([C@@H]2O[C@H](COP(=O)(O)OP(=O)(O)O)[C@@H](O)[C@H]2O)c(=O)n1` [CDP] gave a Kd (Am2136 WT [1]) of 157 ± 3.89 µM and a Vmax (Am2136 WT [2]) of 435 ± 6 µmol/min.

`Nc1ccn([C@@H]2O[C@H](COP(=O)(O)OP(=O)(O)OP(=O)(O)O)[C@@H](O)[C@H]2O)c(=O)n1` [CTP] was tested, and the Kd (Am2136 WT [1]) was 167 ± 5.91 µM and the Vmax (Am2136 WT [2]) was 436 ± 7 µmol/min.

Molecule `Nc1nc2c(ncn2[C@@H]2O[C@H](COP(=O)(O)OP(=O)(O)OP(=O)(O)O)[C@@H](O)[C@H]2O)c(=O)[nH]1` [GTP] has a Kd (Am2136 WT [1]) of 123 ± 3.76 µM and a Vmax (Am2136 WT [2]) of 449 ± 7 µmol/min.

`CC(=O)N[C@H]1[C@H](O[C@@H]2C(O)O[C@H](CO)[C@@H](O)[C@@H]2O)O[C@H](CO)[C@@H](O)[C@@H]1O` (stereo partly drawn) [GlcNAc-(β1,2)Man] showed a GlcNAc released (Am2136; with 1 mM GDP) of 851.33 µM and a GlcNAc released (Am2136; without GDP) of 671 µM.

`O=c1ccn([C@@H]2O[C@H](COP(=O)(O)OP(=O)(O)O)[C@@H](O)[C@H]2O)c(=O)[nH]1` [UDP] showed a Kd (Am2136 WT [1]) of 179 ± 7.71 µM and a Vmax (Am2136 WT [2]) of 429 ± 9 µmol/min.

For `O=c1ccn([C@@H]2O[C@H](COP(=O)(O)OP(=O)(O)OP(=O)(O)O)[C@@H](O)[C@H]2O)c(=O)[nH]1` [UTP], the Kd (Am2136 WT [1]) was 199 ± 3.66 µM and the Vmax (Am2136 WT [2]) was 439 ± 7 µmol/min.

B1: Δ D717-K727 (Akkermansia muciniphila ATCC BAA-835; DEL717-727) (protein)
chain: QDAKQIADSLSIPPVKAGAKQLPMPSVSGAQIKLLGADYEQLVNSKGKIAPVISDTPVNVSFKVTKDGKEAVSKDYEIMLQAPQAAQGNPKPRIIPEILQWKGGQGEYKLGNTVTIACPDKELGKLFAADMEDVLGKKVKLVAPGAKADISLSLLKGGNLGREGYRLQIARDGVRLGAAAPTGLFWGTRTLLQMLRQTPGSVPCGTAVDFPRYQLRGFMLDVARTPYPLSYLKDVIRTMAWYKMNDLHLVINNNYIFHEHYVDNGHDPFKESYAAFRLESKMKGKDGTPLTARDLFYTKKEFADLVSYARKYGVNIVPEFDTPGHALSFTRLRPDLIYKGPMNHEKRRCEMLDAANPETIDLVSKVFDEYMLKDPKLGRPVFADCGVVHVGADEFYGDKEDYRHFANAVLTHALKRGYTPRIWGSLSAKPGKTPVVSKGVQMNLWSTGWMKAWEAVNQGYDVINTNDGALYIVPFAGYYRMDRNHKGLYNNWIPNRIGNETLPSGHPQLLGGTFAVWNDETDIMHTGYAPYDIWGIISGSMDVLSQKLWGTAKAPDTFEQHRELVSSIGNAPRTNPLHKWKDSQPLTVKPSSLPQKLDKPALGPNYRLTMELELTAAPEGKEQVLLAAPEGELLAVMKDGTVGFRRDDSLEFSFGAKLPVGKKVKVEIVGEPEKTSLLLDGEPAGTAVLKNFSDKSKVHRSTFILPLKELGSSFQGKVFHMNVQPL
notes: residues Q20-L756 without signal peptide, N-terminal 6xHis-tag; loop D717-K727 deleted
B1 gave a Km [3] of 6560 ± 410 µM, a Vmax [3] of 144 µmol/min and a kcat/Km [3] of 11000 ± 1000 M⁻¹ s⁻¹.

B2: Am2136 WT (Akkermansia muciniphila ATCC BAA-835) (protein)
chain: QDAKQIADSLSIPPVKAGAKQLPMPSVSGAQIKLLGADYEQLVNSKGKIAPVISDTPVNVSFKVTKDGKEAVSKDYEIMLQAPQAAQGNPKPRIIPEILQWKGGQGEYKLGNTVTIACPDKELGKLFAADMEDVLGKKVKLVAPGAKADISLSLLKGGNLGREGYRLQIARDGVRLGAAAPTGLFWGTRTLLQMLRQTPGSVPCGTAVDFPRYQLRGFMLDVARTPYPLSYLKDVIRTMAWYKMNDLHLVINNNYIFHEHYVDNGHDPFKESYAAFRLESKMKGKDGTPLTARDLFYTKKEFADLVSYARKYGVNIVPEFDTPGHALSFTRLRPDLIYKGPMNHEKRRCEMLDAANPETIDLVSKVFDEYMLKDPKLGRPVFADCGVVHVGADEFYGDKEDYRHFANAVLTHALKRGYTPRIWGSLSAKPGKTPVVSKGVQMNLWSTGWMKAWEAVNQGYDVINTNDGALYIVPFAGYYRMDRNHKGLYNNWIPNRIGNETLPSGHPQLLGGTFAVWNDETDIMHTGYAPYDIWGIISGSMDVLSQKLWGTAKAPDTFEQHRELVSSIGNAPRTNPLHKWKDSQPLTVKPSSLPQKLDKPALGPNYRLTMELELTAAPEGKEQVLLAAPEGELLAVMKDGTVGFRRDDSLEFSFGAKLPVGKKVKVEIVGEPEKTSLLLDGEPAGTAVLKNFSDKSKDFSDKFKHRPKVHRSTFILPLKELGSSFQGKVFHMNVQPL
With B2 the Km [4] was 1530 ± 80 µM and the Km ([4]; 37.0 °C) was 1460 ± 50 µM.

B3: E649A (Akkermansia muciniphila ATCC BAA-835; E649A) (protein)
chain: B2 chain with E630A
B3 gave a Km ([4]; 37.0 °C) of 1450 ± 90 µM.

B4: R592A (Akkermansia muciniphila ATCC BAA-835; R592A) (protein)
chain: B2 chain with R573A
In the case of B4, the Km ([4]; 37.0 °C) is reported as 1480 ± 60 µM.

B5: Y415A (Akkermansia muciniphila ATCC BAA-835; Y415A) (protein)
chain: B2 chain with Y396A
notes: residues Q20-L756 without signal peptide, N-terminal 6xHis-tag
For B5, the Km [3] was 2320 ± 80 µM, the Vmax [3] was 399 µmol/min and the kcat/Km [3] was 86000 ± 1000 M⁻¹ s⁻¹.

B6: T545A+G546A (Akkermansia muciniphila ATCC BAA-835; G546A/T545A) (protein)
chain: B2 chain with T526A, G527A
notes: as for B5
With B6 the Km [3] was 3660 ± 690 µM, the Vmax [3] was 264 µmol/min and the kcat/Km [3] was 36000 ± 5000 M⁻¹ s⁻¹.

B7: R256A (Akkermansia muciniphila ATCC BAA-835; R256A) (protein)
chain: B2 chain with R237A
For B7, the Km ([4]; 37.0 °C) was 1490 ± 60 µM.

B8: D57A+E59A+Q60A (Akkermansia muciniphila ATCC BAA-835; D57A/E59A/Q60A) (protein)
chain: B2 chain with D38A, E40A, Q41A
notes: as for B5
In the case of B8, the Km [3] is reported as 1410 ± 60 µM, the Vmax [3] is reported as 432 µmol/min and the kcat/Km [3] is reported as 153000 ± 3000 M⁻¹ s⁻¹.

B9: Y327F+Y331F (Akkermansia muciniphila ATCC BAA-835; Y327F/Y331F) (protein)
chain: B2 chain with Y308F, Y312F
B9 showed a Km ([4]; 37.0 °C) of 1420 ± 60 µM.

B10: P595A+H597A (Akkermansia muciniphila ATCC BAA-835; H597A/P595A) (protein)
chain: B2 chain with P576A, H578A
B10 showed a Km ([4]; 37.0 °C) of 1580 ± 70 µM.

B11: Y550A (Akkermansia muciniphila ATCC BAA-835; Y550A) (protein)
chain: B2 chain with Y531A
B11 gave a Km ([4]; 37.0 °C) of 1520 ± 40 µM.
